Results taken from patent US20190328788A1 (GENAGON THERAPEUTICS, published 2019).
Ends that are not written are not given here.

T1: Growth and Differentiation Factor 15 (GDF15) (UniProt Q99988 197-308, limits assumed)
T1 construct: also called MIC-1; MIC1
T1 sequence (looked up): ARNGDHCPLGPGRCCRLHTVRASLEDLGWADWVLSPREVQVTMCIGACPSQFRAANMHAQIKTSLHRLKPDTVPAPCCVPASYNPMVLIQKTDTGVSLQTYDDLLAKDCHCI

T2: transforming growth factor-beta 2 (TGF-β2) (UniProt P61812 303-414)
T2 construct: also called TGFb2; TGFB2
T2 sequence (looked up): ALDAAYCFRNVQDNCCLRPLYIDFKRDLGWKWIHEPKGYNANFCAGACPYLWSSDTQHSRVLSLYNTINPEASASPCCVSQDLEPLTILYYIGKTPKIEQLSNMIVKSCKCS

T3: transforming growth factor-beta 3 (TGF-β3) (UniProt P10600 301-412)
T3 construct: also called TGFb3; TGFB3
T3 sequence (looked up): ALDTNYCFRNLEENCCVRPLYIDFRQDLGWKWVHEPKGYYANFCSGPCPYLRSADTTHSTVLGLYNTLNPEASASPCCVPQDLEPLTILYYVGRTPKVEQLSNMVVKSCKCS


These binders were tested against T1, Growth and Differentiation Factor 15 … (assay: ELISA, peptide on streptavidin plate, ligand 100 ng/ml).
Experimental: (§1) Biotinylated synthetic peptide fragments from CLPTM1 (JPT peptides, Germany) were immobilized in a streptavidin 96 well plate (#15500 Pierce) at 1 μM in PBS over night at +4° C. Plate was then washed 4 times in 300 μl PBS with 0.05% tween-20 (wash buffer). The plate was then blocked with PBS 1% BSA and 0.05% tween-20 (blocking buffer) for 1.5 hours at room temperature, then washed 4 times in wash buffer. Ligands GDF15, TGFb1, TGFb2 and TGFb3 (Abcam) were added in blocking buffer at 100 ng/ml and incubated at room temperature for 2 hours. The plate was then washed 8 times in 300 μL wash buffer with 2× NaCl. An anti-GDF15 antibody was added at 1 μg/ml (R&D Systems, goat polyclonal) or a pan-specific anti-TGFb antibody (R&D Systems, mouse 1 D11), and the plate incubated in blocking buffer for 1 hour at room temperature followed by washing with 4×300 μl wash buffer. HAF017 anti-goat-HRP antibody (to detect the anti-GDF15 antibody) or Santa Cruz sc-2005 Goat anti-mouse-HRP (to detect the pan-specific anti-TGFb antibody) was added and the plate incubated for 1 hour in blocking buffer followed by a wash. TMB substrate was added and stopped after 15 minutes with H₂SO₄. OD 450-620 was measured in an ELISA reader.

ELISA OD450	Binder
0.055 OD450	RNLFPKDTLMNLHVYISEHEG (also: biotinylated, site not given here) [CLPTM1 peptide fragment of SEQ ID NO: 30]
0.22 OD450	YPINESLASLPLRVSFCPLSG (also: biotinylated, site not given here, also called peptide 20) [CLPTM1 peptide fragment of SEQ ID NO: 27]
0.507 OD450	GDYYPIIYFNDYWNLQKDYYG (also: biotinylated, site not given here, also called peptide 21) [CLPTM1 peptide fragment of SEQ ID NO: 28]

Second part, the binder before the results:

Binder	ELISA OD450
WQVIKGVLFRIFIIWAISSWG (also: biotinylated, site not given here) [CLPTM1 peptide fragment of SEQ ID NO: 29]	0.023 OD450
LWRWQLYAAQSTKSPWNFLGG (also: biotinylated, site not given here) [CLPTM1 peptide fragment of SEQ ID NO: 26]	0.033 OD450
FTDFNATSALFWEQHDLVYGG (also: biotinylated, site not given here) [CLPTM1 peptide fragment of SEQ ID NO: 31]	0.061 OD450

The binders below were run against T4, transforming growth factor-beta 1 (TGF-β1) (UniProt P01137 279-390) in the same assay as above.
T4 construct: also called TGFb1; TGFB1
Experimental: as §1

T4 sequence (P01137 279-390 limits assumed): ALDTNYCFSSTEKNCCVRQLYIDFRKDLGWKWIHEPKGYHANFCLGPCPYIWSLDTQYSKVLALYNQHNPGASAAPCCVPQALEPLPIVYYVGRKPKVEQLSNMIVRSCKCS

ELISA OD450	Binder
0.015 OD450	RNLFPKDTLMNLHVYISEHEG (also: biotinylated, site not given here) [CLPTM1 peptide fragment of SEQ ID NO: 30]
0.043 OD450	YPINESLASLPLRVSFCPLSG (also: biotinylated, site not given here, also called peptide 20) [CLPTM1 peptide fragment of SEQ ID NO: 27]
1.54 OD450	GDYYPIIYFNDYWNLQKDYYG (also: biotinylated, site not given here, also called peptide 21) [CLPTM1 peptide fragment of SEQ ID NO: 28]

The remaining lines, values behind:

Binder	ELISA OD450
WQVIKGVLFRIFIIWAISSWG (also: biotinylated, site not given here) [CLPTM1 peptide fragment of SEQ ID NO: 29]	0.01 OD450
LWRWQLYAAQSTKSPWNFLGG (also: biotinylated, site not given here) [CLPTM1 peptide fragment of SEQ ID NO: 26]	0.013 OD450
FTDFNATSALFWEQHDLVYGG (also: biotinylated, site not given here) [CLPTM1 peptide fragment of SEQ ID NO: 31]	0.032 OD450

What follows are binders tested against T2, transforming growth factor-beta 2 … in the same assay as above.
Experimental: as §1

ELISA OD450	Binder
0.009 OD450	RNLFPKDTLMNLHVYISEHEG (also: biotinylated, site not given here) [CLPTM1 peptide fragment of SEQ ID NO: 30]
0.025 OD450	YPINESLASLPLRVSFCPLSG (also: biotinylated, site not given here, also called peptide 20) [CLPTM1 peptide fragment of SEQ ID NO: 27]
0.164 OD450	GDYYPIIYFNDYWNLQKDYYG (also: biotinylated, site not given here, also called peptide 21) [CLPTM1 peptide fragment of SEQ ID NO: 28]

The next lines start with the binder.

Binder	ELISA OD450
WQVIKGVLFRIFIIWAISSWG (also: biotinylated, site not given here) [CLPTM1 peptide fragment of SEQ ID NO: 29]	0.006 OD450
LWRWQLYAAQSTKSPWNFLGG (also: biotinylated, site not given here) [CLPTM1 peptide fragment of SEQ ID NO: 26]	0.008 OD450
FTDFNATSALFWEQHDLVYGG (also: biotinylated, site not given here) [CLPTM1 peptide fragment of SEQ ID NO: 31]	0.014 OD450

The binders below were run against T3, transforming growth factor-beta 3 … in the same assay as above.
Experimental: as §1

ELISA OD450	Binder
0.041 OD450	RNLFPKDTLMNLHVYISEHEG (also: biotinylated, site not given here) [CLPTM1 peptide fragment of SEQ ID NO: 30]
0.018 OD450	YPINESLASLPLRVSFCPLSG (also: biotinylated, site not given here, also called peptide 20) [CLPTM1 peptide fragment of SEQ ID NO: 27]
0.151 OD450	GDYYPIIYFNDYWNLQKDYYG (also: biotinylated, site not given here, also called peptide 21) [CLPTM1 peptide fragment of SEQ ID NO: 28]

Second part, the binder before the results:

Binder	ELISA OD450
WQVIKGVLFRIFIIWAISSWG (also: biotinylated, site not given here) [CLPTM1 peptide fragment of SEQ ID NO: 29]	0.019 OD450
LWRWQLYAAQSTKSPWNFLGG (also: biotinylated, site not given here) [CLPTM1 peptide fragment of SEQ ID NO: 26]	0.011 OD450
FTDFNATSALFWEQHDLVYGG (also: biotinylated, site not given here) [CLPTM1 peptide fragment of SEQ ID NO: 31]	0.029 OD450
